Results reported in the supplement of paper PMC11246515.
± gives the standard deviation of the averaged measurements.

Experiment: total protein half-life in vivo (active degradation + dilution); higher = more stable protein
[1] = E. coli NCM3722 delta-clpP delta-lon delta-hslV, growth: N-lim chemostat, doubling time 6 h
[2] = E. coli NCM3722 delta-clpP, growth: N-lim chemostat, doubling time 6 h
[3] = E. coli NCM3722 delta-hslV, growth: N-lim chemostat, doubling time 6 h
[4] = E. coli NCM3722 delta-lon, growth: N-lim chemostat, doubling time 6 h
[5] = E. coli NCM3722 delta-smpB, growth: N-lim chemostat, doubling time 6 h
[6] = wild type E. coli NCM3722, growth: C-lim chemostat, doubling time 3 h
[7] = wild type E. coli NCM3722, growth: C-lim chemostat, doubling time 6 h
[8] = wild type E. coli NCM3722, growth: C-lim chemostat, doubling time 12 h
[9] = wild type E. coli NCM3722, growth: N-lim chemostat, doubling time 6 h
[10] = wild type E. coli NCM3722, growth: N-lim chemostat, doubling time 12 h
[11] = wild type E. coli NCM3722, growth: P-lim chemostat, doubling time 6 h
[12] = wild type E. coli NCM3722, growth: P-lim chemostat, doubling time 12 h

Sequence	total protein half-life in vivo [1]	total protein half-life in vivo [2]	total protein half-life in vivo [3]	total protein half-life in vivo [4]	total protein half-life in vivo [5]	total protein half-life in vivo [6]	total protein half-life in vivo [7]	total protein half-life in vivo [8]	total protein half-life in vivo [9]	total protein half-life in vivo [10]	total protein half-life in vivo [11]	total protein half-life in vivo [12]
MSGQGKRLMVMAGGTGGHVFPGLAVAHHLMAQGWQVRWLGTADRMEADLVPKHGIEIDFIRISGLRGKGIKALIAAPLRIFNAWRQARAIMKAYKPDVVLGMGGYVSGPGGLAAWSLGIPVVLHEQNGIAGLTNKWLAKIATKVMQAFPGAFPNAEVVGNPVRTDVLALPLPQQRLAGREGPVRVLVVGGSQGARILNQTMPQVAAKLGDSVTIWHQSGKGSQQSVEQAYAEAGQPQHKVTEFIDDMAAAYAWADVVVCRSGALTVSEIAAAGLPALFVPFQHKDRQQYWNALPLEKAGAAKIIEQPQLSVDAVANTLAGWSRETLLTMAERARAASIPDATERVANEVSRVARA	5.45 ± 0.24 h	6.19 ± 0.33 h	6.2 ± 0.14 h	6.36 ± 0.52 h	6.16 ± 0.19 h	3.02 ± 0.13 h	6.82 ± 0.71 h	10.9 ± 0.94 h	6.21 ± 0.43 h	12.6 ± 0.14 h	6.05 ± 0.2 h	11.6 ± 0.54 h
MSVIKMTDLDLAGKRVFIRADLNVPVKDGKVTSDARIRASLPTIELALKQGAKVMVTSHLGRPTEGEYNEEFSLLPVVNYLKDKLSNPVRLVKDYLDGVDVAEGELVVLENVRFNKGEKKDDETLSKKYAALCDVFVMDAFGTAHRAQASTHGIGKFADVACAGPLLAAELDALGKALKEPARPMVAIVGGSKVSTKLTVLDSLSKIADQLIVGGGIANTFIAAQGHDVGKSLYEADLVDEAKRLLTTCNIPVPSDVRVATEFSETAPATLKSVNDVKADEQILDIGDASAQELAEILKNAKTILWNGPVGVFEFPNFRKGTEIVANAIADSEAFSIAGGGDTLAAIDLFGIADKISYISTGGGAFLEFVEGKVLPAVAMLEERAKK [P0A799]	5.45 ± 0.47 h	5.27 ± 0.49 h	4.91 ± 0.11 h	5.68 ± 0.45 h	4.66 ± 0.14 h	3.28 ± 0.049 h	6.24 ± 0.46 h	12.8 ± 0.99 h	4.92 ± 0.11 h	8.6 ± 0.45 h	5.69 ± 0.4 h	12 ± 0.29 h
MPSIRLADLAQQLDAELHGDGDIVITGVASMQSAQTGHITFMVNPKYREHLGLCQASAVVMTQDDLPFAKSAALVVKNPYLTYARMAQILDTTPQPAQNIAPSAVIDATAKLGNNVSIGANAVIESGVELGDNVIIGAGCFVGKNSKIGAGSRLWANVTIYHEIQIGQNCLIQSGTVVGADGFGYANDRGNWVKIPQIGRVIIGDRVEIGACTTIDRGALDDTIIGNGVIIDNQCQIAHNVVIGDNTAVAGGVIMAGSLKIGRYCMIGGASVINGHMEICDKVTVTGMGMVMRPITEPGVYSSGIPLQPNKVWRKTAALVMNIDDMSKRLKSLERKVNQQD	6.07 ± 0.77 h	6.31 ± 1.8 h	5.56 ± 0.47 h	5.67 ± 0.27 h	5.17 ± 0.14 h	2.94 ± 0.27 h	5.58 ± 0.18 h	12.2 ± 1.4 h	5.06 ± 0.12 h	9.29 ± 0.54 h	5.9 ± 0.48 h	12.7 ± 0.47 h
MAKMRAVDAAMYVLEKEGITTAFGVPGAAINPFYSAMRKHGGIRHILARHVEGASHMAEGYTRATAGNIGVCLGTSGPAGTDMITALYSASADSIPILCITGQAPRARLHKEDFQAVDIEAIAKPVSKMAVTVREAALVPRVLQQAFHLMRSGRPGPVLVDLPFDVQVAEIEFDPDMYEPLPVYKPAASRMQIEKAVEMLIQAERPVIVAGGGVINADAAALLQQFAELTSVPVIPTLMGWGCIPDDHELMAGMVGLQTAHRYGNATLLASDMVFGIGNRFANRHTGSVEKYTEGRKIVHIDIEPTQIGRVLCPDLGIVSDAKAALTLLVEVAQEMQKAGRLPCRKEWVADCQQRKRTLLRKTHFDNVPVKPQRVYEEMNKAFGRDVCYVTTIGLSQIAAAQMLHVFKDRHWINCGQAGPLGWTIPAALGVCAADPKRNVVAISGDFDFQFLIEELAVGAQFNIPYIHVLVNNAYLGLIRQSQRAFDMDYCVQLAFENINSSEVNGYGVDHVKVAEGLGCKAIRVFKPEDIAPAFEQAKALMAQYRVPVVVEVILERVTNISMGSELDNVMEFEDIADNAADAPTETCFMHYE [P0AEP7]	5.98 ± 0.97 h	3.5 ± 0.04 h	4.16 ± 0.24 h	3.51 h	3.85 ± 0.4 h	2.87 ± 0.1 h	–	7.8 ± 3.2 h	3.45 h	5.7 ± 0.37 h	5.49 ± 0.69 h	11.9 ± 2 h
MTKTLLDGPGRVLESVYPRFLVDLAQGDDARLPQAHQQQFRERLMQELLSRVQLQTWTNGGMLNAPLSLRLTLVEKLASMLDPGHLALTQIAQHLALLQKMDHRQHSAFPELPQQIAALYEWFSARCRWKEKALTQRGLLVQAGDQSEQIFTRWRAGAYNAWSLPGRCFIVLEELRWGAFGDACRLGSPQAVALLLGDLLEKATQHLAESINAAPTTRHYYHQWFASSTVPTGGEHADFLSWLGKWTTADKQPVCWSVTQRWQTVALGMPRLCSAQRLAGAMLEEIFSVNLA	–	–	–	–	3.06 h	2.56 ± 0.43 h	5.83 ± 1.1 h	7.8 h	–	–	–	12.1 ± 0.79 h
MSQQVIIFDTTLRDGEQALQASLSVKEKLQIALALERMGVDVMEVGFPVSSPGDFESVQTIARQVKNSRVCALARCVEKDIDVAAESLKVAEAFRIHTFIATSPMHIATKLRSTLDEVIERAIYMVKRARNYTDDVEFSCEDAGRTPIADLARVVEAAINAGATTINIPDTVGYTMPFEFAGIISGLYERVPNIDKAIISVHTHDDLGLAVGNSLAAVHAGARQVEGAMNGIGERAGNCSLEEVIMAIKVRKDILNVHTAINHQEIWRTSQLVSQICNMPIPANKAIVGSGAFAHSSGIHQDGVLKNRENYEIMTPESIGLNQIQLNLTSRSGRAAVKHRMDEMGYKESEYNLDNLYDAFLKLADKKGQVFDYDLEALAFIGKQQEEPEHFRLDYFSVQSGSNDIATAAVKLACGEEVKAEAANGNGPVDAVYQAINRITEYNVELVKYSLTAKGHGKDALGQVDIVANYNGRRFHGVGLATDIVESSAKAMVHVLNNIWRAAEVEKELQRKAQHNENNKETV	4.72 ± 0.57 h	4.48 ± 0.55 h	1.61 ± 0.08 h	1.77 ± 0.1 h	1.492 ± 0.0018 h	2.21 ± 0.067 h	3.71 ± 0.24 h	4.45 ± 0.23 h	1.63 ± 0.16 h	1.92 ± 0.043 h	3.83 ± 0.44 h	6.6 ± 0.52 h
